From paper doi:10.1101/2021.12.06.471490 (bioRxiv, 2021)

Biological target: yeast tubulin heterodimer, Tub1-WT (internal 6X-His) with Tub2 (S. cerevisiae (budding yeast), UniProt P09733 1-447; P02557 1-457)
Test: pull-down

Chain of yeast tubulin heterodimer, Tub1-WT (internal 6X-His) with Tub2 (P09733 whole entry, chain 1 of 2): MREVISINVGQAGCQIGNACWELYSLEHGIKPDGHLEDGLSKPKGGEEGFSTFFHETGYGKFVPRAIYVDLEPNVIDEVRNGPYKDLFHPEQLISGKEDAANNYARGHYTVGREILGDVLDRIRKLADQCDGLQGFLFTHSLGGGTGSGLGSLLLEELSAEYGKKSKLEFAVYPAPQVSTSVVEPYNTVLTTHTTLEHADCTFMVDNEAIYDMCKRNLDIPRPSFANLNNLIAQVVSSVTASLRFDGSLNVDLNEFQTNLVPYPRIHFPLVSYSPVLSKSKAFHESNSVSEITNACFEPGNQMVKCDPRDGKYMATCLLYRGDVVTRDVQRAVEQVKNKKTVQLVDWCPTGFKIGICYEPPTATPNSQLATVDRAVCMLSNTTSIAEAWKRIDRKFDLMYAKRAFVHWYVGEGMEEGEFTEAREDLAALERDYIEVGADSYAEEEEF
Chain of yeast tubulin heterodimer, Tub1-WT (internal 6X-His) with Tub2 (P02557 whole entry, chain 2 of 2): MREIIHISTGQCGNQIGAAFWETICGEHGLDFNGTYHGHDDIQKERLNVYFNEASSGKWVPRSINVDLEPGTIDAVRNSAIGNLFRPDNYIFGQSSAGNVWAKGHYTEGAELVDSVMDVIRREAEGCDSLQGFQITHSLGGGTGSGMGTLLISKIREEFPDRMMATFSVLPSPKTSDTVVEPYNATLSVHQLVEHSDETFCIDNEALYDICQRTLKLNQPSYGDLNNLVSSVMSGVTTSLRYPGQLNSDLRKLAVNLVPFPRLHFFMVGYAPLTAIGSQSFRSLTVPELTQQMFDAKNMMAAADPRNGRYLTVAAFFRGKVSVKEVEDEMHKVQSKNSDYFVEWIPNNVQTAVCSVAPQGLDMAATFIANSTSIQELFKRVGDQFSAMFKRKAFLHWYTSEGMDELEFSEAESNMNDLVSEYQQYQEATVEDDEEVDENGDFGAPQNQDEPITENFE

B1: GST-TOG1/2 (the two TOG domains of Stu2 fused to a GST tag; Stu2 1-590) (domain or fragment, S. cerevisiae (budding yeast), UniProt P46675 1-590, looked up)
chain: MSGEEEVDYTTLPLEERLTYKLWKARLEAYKELNQLFRNSVGDISRDDNIQIYWRDPTLFAQYITDSNVVAQEQAIVALNSLIDAFASSSLKNAHNITLISTWTPLLVEKGLTSSRATTKTQSMSCILSLCGLDTSITQSVELVIPFFEKKLPKLIAAAANCVYELMAAFGLTNVNVQTFLPELLKHVPQLAGHGDRNVRSQTMNLIVEIYKVTGNNSDLLEEILFKKLKPIQVKDLHKLFAKVGDEPSSSKMLFEWEKRELEKKRSQEEEARKRKSILSNDEGEYQIDKDGDTLMGMETDMPPSKQQSGVQIDTFSMLPEETILDKLPKDFQERITSSKWKDRVEALEEFWDSVLSQTKKLKSTSQNYSNLLGIYGHIIQKDANIQAVALAAQSVELICDKLKTPGFSKDYVSLVFTPLLDRTKEKKPSVIEAIRKALLTICKYYDPLASSGRNEDMLKDILEHMKHKTPQIRMECTQLFNASMKEEKDGYSTLQRYLKDEVVPIVIQIVNDTQPAIRTIGFESFAILIKIFGMNTFVKTLEHLDNLKRKKIEETVKTLPNFSIASGSTHSTIETNKQTGPMENKFLLK
Question: Does B1 bind?
Answer: Result: binds
